Assay: soluble on expression in E. coli; label from the status in PepcDB or PDB records

Sequence	soluble on expression in E. coli
MGSDKIHHHHHHMRVASPETFASQSYRLLPFRFERVNDDRFLLINEVGEHCYLNCADLNNLVNGYLTTSGKTFQNLESKSFVYSENNNFALRAFSAKYRARKSFLFDGPALHIFVLTLRCENSCEYCQVTRRSPDAVKYDMPLSIAKQAVLRMFESPAENLTVEFQGGEPLLAYDVLKYIVELCIELNITEQKSLQFVVATSLQNINMEMLEFFHLHNVHISTSVDGPQWLHQLNRPNSCSNSYEKTMHGLEMARGVLGHDRIAGMTTITRSSLTAIKTIIDEYVRLGFHSIFLRPLNMYGFAVKKENKVGYSSEDFNKFYEQALKYIIEINQQGYRLDEVNAALALNNILTPQATGYVDMRSPCGDGTGVLVYNYDGKVYPSDESRMLVEMGDESLALGSVSESYQDLMSSSVLNTILHAGIAEALPGCSDCAYLPYCGANPIQNYSRYGDMIGHRTFSAFCAKQKFLYRYVFNLLQDKSNRTVFNSWLPL	not soluble
MVLGEYYAVAGHIGFGGKADARHMGNDPRRALVHPPFLPDFGQHIFFHRALEPENRWKRMAGRPRTSAARAFCRQ	not soluble
MGSDKIHHHHHHMNLKKVVNEIRNFEGILRKIAIKDVVETFDFNDEDYEFDIIVDFGDDAAVIGIDGDNAILLAADGIWGKLLEADPWWAGYCSVLVNCKDIAAMGGKCVGMTNIISIKDKDICREVLKGVKDGVKKFGVPMVGGHTHPDAMCNVLDVSITGIAKKDCILRSDNAKIGDKIIFAYDLVGQIYKSFPLNWDTTTMKSKKLVRAQMDALVQIAENKLANSCKDISNPGAIGTLGMLLEVSRKGGVVDITKIPKPEEIDLIHWLKVYPGSGYVLTAKEENFKEIKDIFEDVEMTAEICGEVIAEKKLYITDGENKEVVFDFEKEFICGC	not soluble
MSDQIIARVSQSLAKEQSLESLVRQLLEMLEMVTDMESTYLTKVDVEARLQHIMFARNSQKMYIPENFTVSWDYSLCKRAIDENCFFSDEVPDRWGDCIAARNLGITTFLSTPIHLPDGSFYGTLCAASSEKRQWSERAEQVLQLFAGLIAQYIQKEALVEQLREANAALIAQSYTDSLTGLPNRRAIFENLTTLFSLARHLNHKIMIAFIDLDNFKLINDRFGHNSGDLFLIQVGERLNTLQQNGEVIGRLGGDEFLVVSLNNENADISSLRERIQQQIRGEYHLGDVDLYYPGASLGIVEVDPETTDADSALHAADIAMYQEKKHKQKTPFVAHPALHS	soluble
MSTSVKHREFVGEPMGDKEVTCIAGIGPTYGTKLTDAGFDKAYVLFGQYLLLKKDEDLFIEWLKETAGVTANHAKTAFNCLNEWADQFM	not soluble
MRGSHHHHHHGSMAEKNYVMAIDQGTTSSRAIIFDRNGKKIGSSQKEFPQYFPKSGWVEHNANEIWNSVQSVIAGAFIESGIRPEAIAGIGITNQRETTVVWDKTTGQPIANAIVWQSRQSSPIADQLKVDGHTEMIHEKTGLVIDAYFSATKVRWLLDNIEGAQEKADNGELLFGTIDSWLVWKLTDGQVHVTDYSNASRTMLYNIHKLEWDQEILDLLNIPSSMLPEVKSNSEVYGHTRSYRFYGSEVPIAGMAGDQQAALFGQMAFEKGMIKNTYGTGAFIVMNTGEEPQLSDNDLLTTIGYGINGKVYYALEGSIFVAGSAIQWLRDGLRMIETSPQSEELAAKAKGDNEVYVVPAFTGLGAPYWDSEARGAVFGLTRGTTKEDFVRATLQAVAYQSKDVIDTMKKDSGIDIPLLKVDGGAAKNDLLMQFQADILDIDVQRAANLETTALGAAYLAGLAVGFWKDLDELKSMAEEGQMFTPEMPAEERDNLYEGWKQAVAATQTFKFKAKKEGE	soluble
MPTLRPESPEEVQEAVRAYPRLRAQGGGTKPALSTPKEGEVLLDLSRLRGLLAYEPEEFVFTAFAGTPIAEVEEALRAHGQYLPFDPPLAGKGATLGGTVAAGLSGPLRHRYGGLRDFLLGVRFVDGEGKVVRGGGKVVKNAAGFPFHRLMVGALGAFGVMVELSFKVFPRPRTTRTLRVRREGLEEALADLERLRLLPLDLLALDFIPPATLELRLGGFERSVEARLKRLQDLLGEGEVLAEDEAHWEAVRDLGFLEGSPVWVKVPAKPHLIPRLEALPLGPRRYLDGGEVLYAGTTEEGLKALREAGLPHLVLRGAEAPLFPEPQGAFFAGVKKALDPKGRFPLG	soluble
MGSDKIHHHHHHMIPEEIYKILRKQRYQIDGHTAVKLCGWVRKKMLEDKNCYKSKFYGIETHRCIQCTPSVIWCQQNCIFCWRVLPRDIGIDISQIKEPKWEEPEVVYEKILAMHKRIIMGYAGVLDRVGEKKFKEALEPKHVAISLSGEPTLYPYLDELIKIFHKNGFTTFVVSNGILTDVIEKIEPTQLYISLDAYDLDSYRRICGGKKEYWESILNTLDILKEKKRTCIRTTLIRGYNDDILKFVELYERADVHFIELKSYMHVGYSQKRLKKEDMLQHDEILKLAKMLDENSSYKLIDDSEDSRVALLQNENRKINPKL	not soluble
MPCRGLHAIPAGPPEFPELATIYVVCGDKLNVMIDAGVTNSIMDSSFLEKLDLVILTHIHIDHIGLLPEILDRYKNAKVMIKNGFKKFLTTEDGVRRLNESSEKVLGDLYYIYGEFTKIDPDKVVEVEGGEMIDIGDGKTLKIIYTPGHAKHHISVVSDDILFTGDSGGAYFNGAVIPTTPPPLDYDNYVNSLRLQISLKPKVVGLAHGGLVSPNILEQHLDQMLGKESFDIGEIDIGGIGGEILRKQVEVNLRGLNEALGRNKKTLLEHHHHHH	not soluble
FNHPASAPYIQELATICQQLAQRLQRPVRLLEVGTRTGRAAESLLAQLNAGQIEYVGLEQSQEMLLSARQRLAPWPGARLSLWNADTLAAHAHSADIIWLNNALHRLLPEDPGLLATLQQLAVPGALLYVMEFRQLTPSALLSTLLLTNGQPEALLHNSADWAALFSAAGFNCQH	not soluble
MGSDKIHHHHHHMQNVIENFKQLCKIPHCSYETEQMKEFLSSYAKDKGFKVSVDKAGNIHAIKGKPKICLQSHYDMVCMGDAPNLEVYEENGFLRAKNSSLGADNGIGIAIMMSAMAEFENLECLFTNDEEVGLMGVNLLEHTLESKMLLNLDHESDDEIMIGCAGGVDIEASLSFNTLRKKGKIYELCAQNFKGGHSGINIIRNEKSSIKEMAKFIQENEGEIISFEGGERINSIPKHAKALVHFKDEVKSNNWIKCEFKEENEFEICDQSKKLLSLINSFTHGVRAYDENLDIVQTSINLATLRMQDNQIKFALFARSNILDGLKQVEFETLEFFKAFDFKIRSFNFYPPWEGKPNALSDMVFKALKKVSPNAKVSAIHAGLECGIIEKKQELLCASIGPNIHNPHSTDEHCEIASVEKISKVVFEVLKDNA	not soluble
MGSDKIHHHHHHMHSPRELALLYRQGKNITQLMRDERGLIHNSNEIIEISYDLQAGSYIESMGEAWMAEHNAEYCQQLAKVILSLCNPDSILEAGIGEATTLADLLPHLSKKISSYGFDISWSRVAYGKQWLQQQGISNTVLCTGNLCHIPFADNAVELVYTSHSLEPNGGNEAAILKELYRVTSKFLVLLEPGYELANKDAKHRMEQHGYCRNIKSIAQSLGYRILLHEFFPSSVNPLNPTVITIIEKPPSFEPAKHILACPKYKTPLENIENMLFSPESLMVYPIVGGIPCLGINNGLVASKFRELISKG	not soluble
MNLDDKALFLDAMEDVQPLKRHTDVHWQPTRNLKTPQRIDTLQLDNFLTTGFLDILPLNEPLEFRREGLQQGVIDKLRSGKYPQQASLNLLRQPVETCRKMLFRFILEAQKEGLRNVLIIHGKGREAKSHANIVRSYVARWLTEFEDVQAYCSALPHHGGGGACYVALRKTVQAKQDNWERHAKRSR	not soluble
MAVSEIKATMKLKPLKAPVFHKRDKDLRGSFSDHLKHKESKLSPAQLEAFRNAYNFFTKDRTGCIDSHGLISTIAKLGMNLNTYDIYNELKCADLDRDGKINFSDFINVLTDKKLFLKAVVPEKKICLDLANNPGILLFEILSKFVETSSLHRKDIIELVSYFRKRFQESHSEIMWSSYGRRGLKSEICSPPRSSTAAFANSARISIMKERDLYKFLEALKRCNLRTDSPYSKIPVFPLFPDVDGTVMGKPFKDTQKIEMLRRKEPLTFFEDYFFNKRDWKTQAMNVKPLKSASGYSDDILAIDHLFKKKQHWTVTDAAAIKQHVKKATESYNLGIALDHRKEMLNLWKKIRGDLVGIESNNESFYNTFSTYTWSWNVCQELLSAKDLRLHDASMNKSSPSNSGLSSPSDFSESDPETGRKRKRKSSRGFRQ	not soluble
APYRYLAAGAADVISNLSAVKDWKLAHRLKGEEFSSSAAAMSEYSAQEVLSQINEIKKYEESSVWLVTKNILASGTAMAIAGNSRPGSGSEHLFAHALEAAGVENMLHGEMCAMGTVISMYLHDENWQQIKEAFDNLGISIRSRDYGIEDEIVINALRTAHAIRPERYTILGESDMSYDAAVKALELTGI	not soluble
MSLKNPRIVVVDDSPFSVSILTDMLQRNGFEVVGSASNLNEVKKAVTELNPNLVTMDMVLADTDGLECTKIIHQINPEIRVIAISSMMDDEILAKAKKNNISAYIQKPIDEEELVLAINRISSDDDLYSELKDRYFDIFKQAFSYAFNKFIKEVPNFVEKDEHTVEHVEKGISIVMGIIGKYCGRLILNISYETADKFVESVLNRPAKDLQEILNVVAEFANIVGGNACSMINRENKIFGMRIAPPTTIYGDSINISRNSLDTMNFFTVNVTAGEISVNIGFNKGAVEWMSNEGHHHHHH	soluble
MAQMYFYYSAMNAGKSTTLLQSAFNYQERGMNPLIFTAAIDDRFGVGKVSSRIGLEAEAHLFHADTDLLHVIATLHEAEPRHCILMDECQFLSKEQVYQLTEVVDKLDIPVLCYGLRTDFLGELFEGSKYLLSWADKLIELKTICHCGRKANMVIRTDEHGNAISEGDQVAIGGNDKYVSVCRQHYKEALGR	not soluble
LTRFFGDFFLDIEVKLADVAMMYGLNLGYELQDKTLSNIVEEQLGSTPVLGDQFEWQGLQWVIADVVDHQVTKVGLRLPNEEEEGEEED	not soluble
MRIEVVNVSHIFHRGTPLEKKALENVSLVINEGECLLVAGNTGSGKSTLLQIVAGLIEPTSGDVLYDGERKKGYEIRRNIGIAFQYPEDQFFAERVFDEVAFAVKNFYPDRDPVPLVKKAMEFVGLDFDSFKDRVPFFLSGGEKRRVAIASVIVHEPDILILDEPLVGLDREGKTDLLRIVEKWKTLGKTVILISHDIETVINHVDRVVVLEKGKKVFDGTRMEFLEKYDPRFFTSKMLVMRRLVLKGEDPFSMSDDELLERVCNS	soluble
TNCVTISQREILKGVEGVTWFEVLLEKTSCITIAAQNRPSIDLWLDDVKQSSVMASKEFCMKVEVSETQIAARCPTQGDATLPMEGKDDYVCKKTFSDRGWGNGCALFGKGSIVGCAKVACNTANVMKTHIYEQQAVQYVVGIEVHRGEVIKANVSDKVIKASFSAEAEKHTVEIPDYGSLDFTCRVVASADLSNIRLLEVDGHYFNVHEDWLDDLPLPWRINAGPWRGMDKLVNFREPYAVKMVIMGYGDQRPAVLGALDKAEEIKKVGDNYHLNGGHVSCKVSVAKLKLKGMTYVVCGGKFAWAKKPIATNHDTVAMEVTYTGNDTPCRVTVKNVKENSDDQGTLITTNPFVESNGATIFLELEPVYGLSTIKVGDITYQWNQQGSVIGKALEHHHHHH	not soluble
MNPFQKIKSAVNKRQRFFINRTLQRKLTNQGMTVISANCVGAFILHDLHQPFNSPFVNLYLSPQDFLRYLQNIDFYLTQPLTFVQTEKSYPVGKLADLEIHFMHYHSEQEANEKWQLRTSRMKLDNLFIMMTDRDGVTEKDIQLFDQLPFKNKVIFTHKPYPAFKSAYYIKGFEKQNQVGDIFEFSGWNGKKYYDQFDYVKWFNHA	not soluble
